Results on one molecule are retold here after US20260226152A1 (GlaxoSmithKline, published 2026).

As a reminder, the Kd is a measure of binding affinity in units of concentration.

The target in assay [1] is T1, Human IL-23 (human, UniProt Q9NPF7 20-189; P29460 23-328).
T1 sequence 1: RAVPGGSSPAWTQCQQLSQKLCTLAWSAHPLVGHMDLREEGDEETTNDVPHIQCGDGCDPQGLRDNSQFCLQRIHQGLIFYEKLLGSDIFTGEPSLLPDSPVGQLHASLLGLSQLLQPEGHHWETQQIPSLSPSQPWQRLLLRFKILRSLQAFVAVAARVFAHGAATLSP
T1 sequence 2: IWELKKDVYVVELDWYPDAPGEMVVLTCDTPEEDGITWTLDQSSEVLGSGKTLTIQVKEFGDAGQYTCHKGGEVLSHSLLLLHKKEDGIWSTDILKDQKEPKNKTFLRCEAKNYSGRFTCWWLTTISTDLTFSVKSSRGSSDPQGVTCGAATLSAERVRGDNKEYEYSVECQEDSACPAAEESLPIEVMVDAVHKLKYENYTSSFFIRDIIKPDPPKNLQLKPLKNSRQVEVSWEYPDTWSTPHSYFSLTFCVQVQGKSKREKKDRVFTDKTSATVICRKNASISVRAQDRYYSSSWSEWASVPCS
In words: cell-based or functional assay.

Assay [2] has as its target T2, Cynomolgus monkey IL-18 (Rhesus monkey (identical to cynomolgus …, UniProt Q9BGI5 37-193)).
T2 construct: Bought protein; also called Cyno IL-18; Cynomolgus IL-18
T2 sequence: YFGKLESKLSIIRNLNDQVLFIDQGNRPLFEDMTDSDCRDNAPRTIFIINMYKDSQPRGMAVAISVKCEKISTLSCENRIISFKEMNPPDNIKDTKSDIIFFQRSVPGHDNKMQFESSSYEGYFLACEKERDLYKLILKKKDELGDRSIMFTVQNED
In words: SPR (Biacore), antibody captured on Protein A/G, cytokine as analyte, 25 C. The method, then:
(§1) A heterodimeric bsAb, alongside anti-IL-18 and anti-IL-23 common light chain control bispecific antibodies, were assessed for binding to human and cyno IL-18 and IL-23, using the Biacore 8K and T200 (Cytiva) surface plasmon resonance (SPR) instruments. All reagents were generated recombinantly in-house with the exception of Rhesus monkey IL-18 which was purchased from R&D systems (Cat #2548-RM-025/CF). Rhesus and cynomolgus monkey amino acid sequences are identical. Therefore, the protein will be referred to as cynomolgus monkey IL-18.
(§2) Heterodimeric bsAb, anti-IL-18 and anti-IL-23 common light chain bispecific control molecules were assessed for binding to recombinant human and cynomolgus monkey IL-18 and IL-23 using the Biacore 8K and T200 (Cytiva) SPR instruments. The antibodies were captured onto Protein A/G, which was immobilised onto flow cell 2 of 8 channels (Biacore 8K) or flow cells 2, 3 and 4 (Biacore T200) of a CM5 series S sensor chip by primary amine coupling. The IL-18 or IL-23 analytes were passed over the captured antibodies at varying concentrations between 0.04-25 nM. The association phase was for 240 seconds at 30 μl/min, followed by a dissociation step of up to 1200 seconds. A 0 nM (i.e., buffer alone) injection was used to double reference the binding curves. Regeneration of the chip surface between cycles was carried out using 50 mM NaOH. The assay was run at 25° C. in HBS-EP⁺ buffer. Biacore 8K control software version 3.0 was used to run the experiment. Data was analysed using Biacore 8K Insight evaluation software version 3.0. Biacore T200 control software version 1.0 was used to run the experiment. Data was analysed using Biacore T200 evaluation software version 2.0. Affinities and kinetics were determined using the 1:1 kinetic fit inherent to the software where possible. All affinity values generated using both instruments were combined to determine geometric mean values.
(In general: SPR reads the build-up and loss of mass on a sensor chip optically.)

For assay [3], the target named is T3, Human IL-18 (human, UniProt Q14116 37-193).
T3 construct: Recombinant, made in-house; In the BLI assay the loaded cytokine was captured on anti-Penta His sensors, so a His tag is implied but not described; also called recombinant human IL-18; interleukin 18
T3 sequence: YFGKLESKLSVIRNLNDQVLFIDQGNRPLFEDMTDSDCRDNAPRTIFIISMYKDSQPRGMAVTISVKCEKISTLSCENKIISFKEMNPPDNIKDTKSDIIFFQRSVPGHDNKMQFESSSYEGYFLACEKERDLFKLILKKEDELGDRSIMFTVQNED
The assay is described as above. The protocol: as §1, §2

For assay [4], the target named is T2, Cynomolgus monkey IL-18. Nature of the assay: cell-based or functional assay.
The target in assay [5] is T3, Human IL-18. Nature of the assay: cell-based or functional assay.
The target in assay [6] is T1, Human IL-23. In words: cell-based or functional assay. The source holds these as a separate data set.
Assay [7] has as its target T1, Human IL-23. In words: SPR (Biacore 8K/T200), antibody captured on Protein A/G, cytokine as analyte, 25 C, geometric mean of n=3-5. The method, then: as §1, §2
A further assay addresses T4, Cynomolgus monkey IL-23 (cynomolgus monkey).
T4 construct: also called Cyno IL-23
Described as above. The method, then:
as §1, §2

Assay [8] has as its target T1, Human IL-23. Nature of the assay: cell-based or functional assay. The source holds these as a separate data set.

B1: IL-23 control 1 (antibody, V domains shown)
VH: QVQLVQSGAEVKKPGSSVKVSCKASGYTFTDQTIHWMRQAPGQGLEWIGYIYPRDDSPKYNENFKGKVTITADKSTSTAYMELSSLRSEDTAVYYCAIPDRSGYAWFIYWGQGTLVTVSS
VL: DIQMTQSPSSLSASVGDRVTITCKASRDVAIAVAWYQQKPGKVPKLLIYWASTRHTGVPSRFSGSGSRTDFTLTISSLQPEDVADYFCHQYSSYPFTFGSGTKLEIK
notes: Anti-IL-23 (risankizumab) mAb plus Het-mAb Fc mutations of Heterodimeric bsAbs 1-4, silencing (LAGA) and half-life extending (YTE) mutations; also called anti-IL-23 control 1; risankizumab variable domains
On to B1, for which, in the assay with Human IL-23 [1], the “IC50 pM (Geomean), neutralisation of human IL-23-induced pSTAT3 in DB cells (MSD)” value came to 16.6 pM and the “pIC50 (Geomean), neutralisation of human IL-23-induced pSTAT3 in DB cells (MSD)” value came to 10.8. Besides, the binding result with Cynomolgus monkey IL-18 [2] is “no binding (tested: 0.04-25 nM analyte)”. Also, the binding result with Human IL-18 [3] was “no binding (tested: 0.04-25 nM analyte)”. Further, the “pIC50 (GeoMean), neutralisation of cynomolgus IL-18-induced IFNγ secretion by KG-1 cells” value in the assay with Cynomolgus monkey IL-18 [4] was < 8.48. Besides, the “pIC50 (GeoMean), neutralisation of human IL-18-induced IFNγ secretion by KG-1 cells” value with Human IL-18 [5] is < 8.48. Moreover, in the assay with Human IL-23 [6], the “IC50, inhibition of IL-23-induced pSTAT3 in T cells of human whole blood” value was found to be 163 pM and the “pIC50, inhibition of IL-23-induced pSTAT3 in T cells of human whole blood” value was 9.8. Further, in the assay with Human IL-23 [7], the Kd turned out to be 0.348 nM. Moreover, binding in the assay with Cynomolgus monkey IL-23 was put at a Kd of 0.204 nM. Further, in the assay with Human IL-23 [8], the “IC50 pM, inhibition of human IL-23-induced mouse IL-17A secretion in mouse splenocytes” value came to 41.7 pM and the “pIC50 (M), inhibition of human IL-23-induced mouse IL-17A secretion in mouse splenocytes” value was determined as 10.4.
